Paper PMC11910552, “Regulation of acetyl-CoA biosynthesis via an intertwined acetyl-CoA synthetase/acetyltransferase complex” (Nature Communications, 2025)
One block for each molecule: values may come before it.

B1: Acetyl-CoA synthetase AcsA (Bacillus subtilis) (enzyme)
chain: MNLKALPAIEGDHNLKNYEETYRHFDWAEAEKHFSWHETGKLNAAYEAIDRHAESFRKNKVALYYKDAKRDEKYTFKEMKEESNRAGNVLRRYGNVEKGDRVFIFMPRSPELYFIMLGAIKIGAIAGPLFEAFMEGAVKDRLENSEAKVVVTTPELLERIPVDKLPHLQHVFVVGGEAESGTNIINYDEAAKQESTRLDIEWMDKKDGFLLHYTSGSTGTPKGVLHVHEAMIQQYQTGKWVLDLKEEDIYWCTADPGWVTGTVYGIFAPWLNGATNVIVGGRFSPESWYGTIEQLGVNVWYSAPTAFRMLMGAGDEMAAKYDLTSLRHVLSVGEPLNPEVIRWGHKVFNKRIHDTWWMTETGSQLICNYPCMDIKPGSMGKPIPGVEAAIVDNQGNELPPYRMGNLAIKKGWPSMMHTIWNNPEKYESYFMPGGWYVSGDSAYMDEEGYFWFQGRVDDVIMTSGERVGPFEVESKLVEHPAIAEAGVIGKPDPVRGEIIKAFIALREGFEPSDKLKEEIRLFVKQGLAAHAAPREIEFKDKLPKTRSGKIMRRVLKAWELNLPAGDLSTMED
notes: AcsA, acetyl-CoA synthetase of Bacillus subtilis; gene amplified from genomic DNA of strain 3610; catalytic lysine K549; the gene came from strain 3610; Monomer and dimer seen by mass photometry; also called Ac-CoA synthetase; source: E. coli BL21(DE3), purified (HisTrap, SEC)

Experiments:
AcuA = target: T1, AcuA (Bacillus subtilis, UniProt P39065); assay: isothermal titration calorimetry, one binding site model
T1 construct: monomer 21 kDa by mass photometry

[1] = target: T2, Acetyl-CoA synthetase AcsA (Bacillus subtilis) (Bacillus subtilis) (UniProt P39062)
T2 sequence: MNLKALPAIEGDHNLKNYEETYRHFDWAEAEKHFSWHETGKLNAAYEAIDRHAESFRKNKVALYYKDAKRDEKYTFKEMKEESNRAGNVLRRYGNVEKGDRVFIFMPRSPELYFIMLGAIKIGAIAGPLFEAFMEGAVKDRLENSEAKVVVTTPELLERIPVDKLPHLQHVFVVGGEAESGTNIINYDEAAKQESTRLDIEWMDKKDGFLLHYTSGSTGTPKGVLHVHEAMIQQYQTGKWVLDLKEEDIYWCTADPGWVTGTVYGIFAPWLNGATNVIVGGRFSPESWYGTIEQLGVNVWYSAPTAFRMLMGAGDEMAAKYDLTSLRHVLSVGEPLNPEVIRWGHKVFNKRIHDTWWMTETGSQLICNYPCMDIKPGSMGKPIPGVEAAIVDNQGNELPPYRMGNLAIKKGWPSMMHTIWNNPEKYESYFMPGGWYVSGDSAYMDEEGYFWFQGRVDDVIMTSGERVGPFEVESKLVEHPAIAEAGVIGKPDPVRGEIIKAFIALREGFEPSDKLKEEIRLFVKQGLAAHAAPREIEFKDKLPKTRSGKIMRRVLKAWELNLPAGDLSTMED

purified protein = substrate: CC(=O)O; assay: purified protein; conditions: without AcuA; 1 mM CoA, ATP 2.5 mM or 2 mM, 0.1 mM DTT, room temperature
[2] = target: the molecule itself; assay: mass photometry; TwoMP mass photometer, SEC buffer, 37.5 nM final protein concentration; proteins alone or 37.5 nM AcsA with 37.5 nM AcuA
[3] = target: B1; assay: cell-based or functional assay
[4] = target: B1; assay: pull-down; 200 μg GST-tagged protein immobilised on GST-Sepharose beads in spin columns, 200 μg partner added in SEC buffer (20 mM HEPES-Na pH 7.5, 200 mM NaCl, 20 mM KCl, 20 mM MgCl2), 30 min, three washes, elution with 20 mM GSH, Coomassie-stained SDS-PAGE; without Ac-CoA (also with 1 mM ATP, 1 mM AMP or 130 μM CoA, or with AcuB and AcuC added); conditions: both partners purified

Molecule: CC(=O)SCCNC(=O)CCNC(=O)[C@H](O)C(C)(C)COP(=O)(O)OP(=O)(O)OC[C@H]1O[C@@H](n2cnc3c(N)ncnc32)[C@H](O)[C@@H]1OP(=O)(O)O [Ac-CoA]
Kd (AcuA): 9.47 ± 0.51 µM

Molecule: B1
Km (purified protein): 430 µM
Vmax (purified protein): 2.17 µmol/min/mg
stoichiometry N [2]: 2

Now from value to molecule:

AcsA activity (HPLC) with 0-1 mM AcuA C-terminus peptide; reduction of activity at 1 mM [1]: 90%
Molecule: RLRFYHRYMY [AcuA C-terminus peptide (201-…-210)]

Vmax of Ac-CoA production by AcsA (HPLC) at AcsA:AcuA ratios 1:0.5, 1:1, 1:2, 1:5: 1834 down to 390 nmol mg^−1 min^−1 (without AcuA 2167) [3]: 1830 nmol/mg/min
B2: GCN5-related N-acetyltransferase AcuA (Bacillus subtilis) (enzyme)
chain: MEHHKTYHSANIKTATGSLLIEGPVSPEDLAGYEFHKDLTAFRPPREQHEALVDIAGLPEGRIIIARDGRTIVGYVTYLYPDPLERWSEGNMEDLIELGAIEVAPDYRGCAVGKTLLTVSMMDEQMENYIVMTTEYYWHWDLKGMKKDVWEYRKIMEKMMNAGGLVWFATDEPEISSHPANCLMARIGKNVSQESIEQFDRLRFYHRYMY

binding result [4]: binds
B3: GST-AcuA_E102Q (enzyme, Bacillus subtilis)
chain: MEHHKTYHSANIKTATGSLLIEGPVSPEDLAGYEFHKDLTAFRPPREQHEALVDIAGLPEGRIIIARDGRTIVGYVTYLYPDPLERWSEGNMEDLIELGAIQVAPDYRGCAVGKTLLTVSMMDEQMENYIVMTTEYYWHWDLKGMKKDVWEYRKIMEKMMNAGGLVWFATDEPEISSHPANCLMARIGKNVSQESIEQFDRLRFYHRYMY
notes: source: E. coli BL21(DE3), purified
